In paper PMC8908738:

What was measured:
thrombin [1] = biological target: T1, thrombin (UniProt P00734;P00734 328-363;364-622); experiment: competitive hybridization, CD of DNA origami chiral plasmonic probe; 170 nM thrombin, n=7-11 bp at aptamer 5' end; R2=0.94 (below the authors' 0.95 validity threshold); Binding buffer, pH and temperature not given in the material shown; origami assembled in TE with 20 mM MgCl2 and 5 mM NaCl; thrombin 170 nM
thrombin [2] = biological target: T1, thrombin; experiment: competitive hybridization, CD of DNA origami chiral plasmonic probe; 170 nM thrombin, n=7-11 bp at aptamer 3' end; R2=0.97; Binding buffer, pH and temperature not given in the material shown; origami assembled in TE with 20 mM MgCl2 and 5 mM NaCl; thrombin 170 nM

B1: thrombin DNA aptamer, 5' bridge lock (complement hybridizes at aptamer 5' end) (structured_DNA)
DNA: CTAGCGAGCGAACTTTGGTTGGTGTGGTTGG
With B1 the Kd (thrombin [1]) was 235 nM.

B2: thrombin DNA aptamer, 3' bridge lock (complement hybridizes at aptamer 3' end) (structured_DNA)
DNA: GGTTGGTGTGGTTGGTTTAGAGTGAGCAGAG
B2 was tested, and the Kd (thrombin [2]) was 46.7 nM.
